In the Human Domainome abundance scans (Beltran et al. 2025):

B1: Pre-mRNA-processing factor 40 homolog B, residues 274 to 332; numbered along this chain, Q6NWY9 (parent)
chain: SNREKAKQAFKELLRDKAVPSNASWEQAMKMVVTDPRYSALPKLSEKKQAFNAYKAQRE

Variants of: B1
Assay: abundance fitness (aPCA) (normalised: wild type 0, dead -1); higher = more abundant; growth selection in yeast, the domain comes from the species named
Conditions: Homo sapiens

Abundance fitness, by site and new letter:
A9: G -0.292, Q -0.041, I 0.081, D 0.09, R -0.364, S -0.106, L -0.092, T 0.117, K -0.196, N -0.279, Y -0.417, W -0.72, E -0.038, M -0.119, V 0.003, H -0.458, P -0.536, F -0.563, C -0.094
E4: I -0.025, W -0.642, C -0.668, S -0.156, M -0.41, V -1.08, A -1.5, D -0.01, G -0.374, P -0.566, H -0.082, N -0.074, Q -0.233, R -0.45, F -0.294, T -0.433, Y -0.457, L -0.23, K -0.368
N2: E -0.089, A -0.406, P -0.497, V -0.849, W -0.276, R -0.324, D 0.033, M -0.393, T 0.027, I -0.46, L -0.581, H -0.83, Q 0.037, Y -1.01, S -0.208, K -0.139, G -0.207, C -0.547
R3: W -0.251, H -0.281, P 0.034, L 0.044, T -0.062, M 0.07, G -0.084, F -0.27, E -0.047, C 0.043, K 0.308, I 0.06, A -0.409, D 0.036, S 0.076, N 0.221
S1: M -0.364, N -0.042, D -0.357, E -0.206, A -0.015, T -0.032, R -0.084, I -0.075, P -0.478, F 0.15, K 0.135, V 0.13, C 0.042, G 0.07, Y 0.089, L 0.045, W -0.417
A6: L -0.566, I -0.153, D -0.002, Q 0.009, T -0.394, Y -0.56, M -0.539, E 0.172, K -0.243, S -0.194, R -0.381, G -0.05, V -0.331, W -0.948, H -0.201
Q8: A -0.145, Y -0.49, R -0.241, M -0.416, S -0.362, F -0.412, W -0.581, C -0.386, E 0.003, H -0.341, N -0.585, I -0.069, T -0.065, L -0.108, P -0.42, G -0.301
K7: A 0.027, Y -0.016, C -0.276, P -0.587, L 0.065, Q 0.062, V 0.124, M 0.144, N -0.074, G -0.319, S -0.005, F 0.104, R -0.174, E 0.135, T 0.042, I -0.055, H 0.065
F10: G -0.277, D -0.22, C -0.611, E -0.067, I -0.25, P -0.177, S -0.254, K -0.318, T -0.048, M -0.4, L -0.424, R -0.332, H -0.132
K5: M -0.024, E -0.049, D -0.012, R -0.193, L -0.177, C -0.134, V -0.063, N -0.081, P -0.409, W -0.553, G -0.187, Y -0.179, Q -0.07, I -0.171, H -0.203, T -0.042, S -0.055
